# According to patent publication US11739318B1, “Modified biosensors and biocatalysts and methods of use” (priority 2017, dated 2023):
# B1: CatM_C2.9: CatM variant V97I, G127A, T128A, L147V with weaker ccMA sensitivity, SEQ ID NO: 25 (protein)
# chain: MELRHLRYFVTVVEEQSISKAAEKLCIAQPPLSRQIQKLEEELGIQLFERGFRPAKVTEAGMFFYQHAVQILTHTAQASSMAKRIATVSQTLRIGYISSLLYGLLPEIIYLFRQQNPEIHIELIECAAKDQINALKQGKIDLGFGRVKITDPAIRRIVLHKEQLKLAIHKHHHLNQFAATGVHLSQIIDEPMLLYPVSQKPNFATFIQSLFTELGLVPSKLTEIREIQLALGLVAAGEGVCIVPASAMDIGVKNLLYIPILDDDAYSPISLAVRNMDHSNYIPKILACVQEVFATHHIRPLIE
# modifications: CatM_C2.9
# B2: CatM_A9: CatM regulated promoter variant for reduced signal output, SEQ ID NO: 23 (nucleic acid)
# DNA: TTATACGCCCTAATTGGTTTTATATACCTTTTTAGTATGCAAAAATACCAAATTGGTGTGGATTTTTATTATTACATTAATTTACAGTATGTAAATAGTATTTATTGAAAAGAAGATGGACCG
# modifications: listed as DNA, chemistry not fully specified
# B3: L69V: PON1 individual point mutation L69V from the literature (protein, UniProt P27169 2-355, looked up, variant L69V)
# Serum …: AKLIALTLLGMGLALFRNHQSSYQTRLNALREVQPVELPNCNLVKGIETGSEDLEILPNGLAFISSGVKYPGIKSFNPNSPGKILLMDLNEEDPTVLELGITGSKFDVSSFNPHGISTFTDEDNAMYLLVVNHPDAKSTVELFKFQEEEKSLLHLKTIRHKLLPNLNDIVAVGPEHFYGTNDHYFLDPYLQSWEMYLGLAWSYVVYYSPSEVRVVAEGFDFANGINISPDGKYVYIAELLAHKIHVYEKHANWTLTPLKSLDFNTLVDNISVDPETGDLWVGCHPNGMKIFFYDSENPPASEVLRIQNILTEEPKVTQVYAENGTVLQGSTVASVYKGKLLIGTVFHKALYCEL
# B4: Lib2-D12: PON1 clone from Lib2, H115W scaffold with F222I, F292I (protein, UniProt P27169 2-355, looked up, variant H115W F222I F292I)
# Serum …: AKLIALTLLGMGLALFRNHQSSYQTRLNALREVQPVELPNCNLVKGIETGSEDLEILPNGLAFISSGLKYPGIKSFNPNSPGKILLMDLNEEDPTVLELGITGSKFDVSSFNPWGISTFTDEDNAMYLLVVNHPDAKSTVELFKFQEEEKSLLHLKTIRHKLLPNLNDIVAVGPEHFYGTNDHYFLDPYLQSWEMYLGLAWSYVVYYSPSEVRVVAEGFDIANGINISPDGKYVYIAELLAHKIHVYEKHANWTLTPLKSLDFNTLVDNISVDPETGDLWVGCHPNGMKIIFYDSENPPASEVLRIQNILTEEPKVTQVYAENGTVLQGSTVASVYKGKLLIGTVFHKALYCEL
# B5: V346A: published PON1 variant with mutation V346A (protein, UniProt P27169 2-355, looked up, variant V346A)
# Serum …: AKLIALTLLGMGLALFRNHQSSYQTRLNALREVQPVELPNCNLVKGIETGSEDLEILPNGLAFISSGLKYPGIKSFNPNSPGKILLMDLNEEDPTVLELGITGSKFDVSSFNPHGISTFTDEDNAMYLLVVNHPDAKSTVELFKFQEEEKSLLHLKTIRHKLLPNLNDIVAVGPEHFYGTNDHYFLDPYLQSWEMYLGLAWSYVVYYSPSEVRVVAEGFDFANGINISPDGKYVYIAELLAHKIHVYEKHANWTLTPLKSLDFNTLVDNISVDPETGDLWVGCHPNGMKIFFYDSENPPASEVLRIQNILTEEPKVTQVYAENGTVLQGSTVASVYKGKLLIGTAFHKALYCEL
# B6: Lib1-C3.3: top PON1 variant (H115W, L69V, K70Q, Y71L, G73A) (protein, UniProt P27169 2-355, looked up, variant H115W L69V K70Q Y71L G73A)
# Serum …: AKLIALTLLGMGLALFRNHQSSYQTRLNALREVQPVELPNCNLVKGIETGSEDLEILPNGLAFISSGVQLPAIKSFNPNSPGKILLMDLNEEDPTVLELGITGSKFDVSSFNPWGISTFTDEDNAMYLLVVNHPDAKSTVELFKFQEEEKSLLHLKTIRHKLLPNLNDIVAVGPEHFYGTNDHYFLDPYLQSWEMYLGLAWSYVVYYSPSEVRVVAEGFDFANGINISPDGKYVYIAELLAHKIHVYEKHANWTLTPLKSLDFNTLVDNISVDPETGDLWVGCHPNGMKIFFYDSENPPASEVLRIQNILTEEPKVTQVYAENGTVLQGSTVASVYKGKLLIGTVFHKALYCEL
# Assays:
# [1] = test system: ccMA; assay: Intracellular ccMA sensing with CatM sensor in strain CJ184, flow cytometry; type: cell-based, P. putida
# Text: FIG. 14A represents the Acinetobacter baylyi CatM promoter region used for selection of ccMA sensing in P. putida KT2440. The regions that were partially diversified or completely randomized are marked ‘red’ and the mutations pursued are labeled. For example −10 and −35 sites were partially randomized for saturation, the ribosome binding site (RBS) was made compatible to the consensus sequence AAGGAG followed by eight bases to the start codon “ATG” of the reporter. Overall the library diversity was expected to be well above 60,000. Using a method similar to what has been described in Example 1-3, catM gene, diversified regulatory region, and sfgfp were inserted into the pBTL2 backbone. The completed circular plasmids, carrying Kanamycin resistance marker, were then transformed into electrocompetent cells of P. putida strain CJ184. The transformation gave well above 60,000 colonies to cover the library adequately. […] Post 16 h of growth at 30° C., the samples were analyzed on a flow cytometer (BD FACSAria III). […] Post third round of sorted population, a fraction was plated on LB agar+Kan50 plates and a few colonies evaluated for PCA, Benzoate and Catechol response, considering CJ184 strain is capable of converting them all to final product ccMA. […]
# [2] = individual mutations, hydrolysis of OPs; cited from earlier work
# [3] = test system: PXN; assay: Whole cell catalysis and sensing of PON1 clones at varying PXN (contrast ratio); type: cell-based, E. coli; settings: scaffold PON1-H115W
# Method: (§1) FIGS. 17A-17G show evolution of PON1. […] Residue positions varied in library construction are indicated. […] The circled region is magnified (inset) for easy visualization of the bright colony. […] The contrast ratio is defined as total fluorescence of the cells in the presence of PXN over the background fluorescence of the cells in the absence of PXN. […] The product, pNP, is measured by absorbance (410 nm). Error bars are standard deviation from two independent assays with different fractions from size exclusion chromatography. […] Error bars are the standard deviation of two independent assays using elution fractions from first half and second half of the chromatogram peak from size exclusion chromatography.
# In order to efficiently screen the library, the biosensor/biocatalyst plasmid consisting of variants of PON1 was directly transferred to high transformation efficiency DH5α cells. […] The colony picking can further be made more stringent by using lower PXN (for example 100 μM) in the growth media and colonies selected based on the fluorescence intensity under an illuminator.
# The clones were further confirmed for improved activity by using clear cell lysates that were normalized for sfGFP fluorescence (the enzyme variants expressed as sfGFP-PON1 fusion by inducing the same clones with 200 μM pNP) and assayed for activity at different concentrations of PXN. […]
# [4] = PON1 expression and solubility from fluorescence of the cell lysate; parameters: species or system E. coli; settings: based on the fluorescence of the cell lysate
# Method: The clones were further confirmed for improved activity by using clear cell lysates that were normalized for sfGFP fluorescence (the enzyme variants expressed as sfGFP-PON1 fusion by inducing the same clones with 200 μM pNP) and assayed for activity at different concentrations of PXN. […] The most notable aspect of comparison between the in vivo activity measurements (FIG. 17D) and the in vitro measurements (FIG. 17E) is the relative ranking of the different PON1 variants. While Lib1-C3.3 did show highest Vmax in both formats of experiment, the Lib2-D12 was the lowest in both cases. […] The solubility of other PON1 variants ranged between these two extreme values.
# [5] = test system: pNP sensor; assay: Raw whole cell fluorescence with pNP sensor and sfGFP-PON1 under positive feedback regulation, flow cytometer; type: cell-based, E. coli; settings: mean of duplicate cultures ± SD
# Text: FIGS. 16A-16D show ‘Catalyze’ and ‘sense’ system for hydrolysis reactions. […] UI: background fluorescence from cells without any pNP source to induce the TF; […]; pNP: TF induced by exogenously supplied pNP as a control/reference. […] Relative activity levels are distinguishable by eye.
# The technique described here (referred to in this example as “smart microbial cells” or SMC; e.g., FIGS. 1A and 1B) allows for catalysis and sensing in the same microbial cell. For a practical library application, we simplified and improved the signal to noise ratio of the biosensor. This was achieved by gene fusing the PON1 to the GFP so that the TF is also regulating the catalytic enzyme expression as well (scheme shown in FIG. 1B). This fusion is expected to have three distinct effects. First, it provides positive feedback, such that more the activity, the more PON1 is expressed, and in turn further ‘feeds’ the activity. […] Second, feedback will amplify the already present correlation between activity and GFP expression. Third, for suitably chosen GFP, the fluorescence signal conveniently reports the amount of fused PON1 present, allowing normalization for specific activity.
# . Based on the catalytic efficiency and the cytoplasmic concentration of the hydrolase, PXN hydrolysis results in a correlated pNP production inside the microbial cell that ultimately determines activation of the pNP sensor and accumulation of sfGFP in the cells. […] When pNP was used as an inducer, such that the expression of sfGFP-PON1 expression is independent of the catalytic efficiency of PON1, modest differences in cell fluorescence were still captured across the PON1 variants indicating V346A mutation could be detrimental to PON1 expression and stability (FIG. 16C, Table 6).
# [6] = Paraoxonase activity of purified PON1 variants (pNP absorbance 410 nm); type: biochemical; settings: 400 μM PXN
# Method: as §1
# Finally, the gene for top PON1 variant Lib1-C3.3 (H115W, L69V, K70Q, Y71L, G73A) and the scaffold (H115W) were transferred to a pRSF-1b vector (Novagen) and expressed as a C-terminal 6×His-tagged protein. Post two-step purification using affinity column and a size exclusion chromatography, pure fractions were combined and tested for activity at varying concentrations of PXN. […]
molecule,measurement,setting,value
B1,ccMA titer for dose-response (low sensitivity),[1]; CJ184,> 10 mM
B2,fluorescence and dose-response,[1]; compared with CatM_C2,weaker fluorescence but very similar dose-response as the CatM_C2
B3,higher catalytic efficiency over the wild-type,[2],four- to sixteen and four
B4,contrast ratio higher than the scaffold,[3],2 fold
same,protein yield compared to the scaffold,[4],50%
B5,"Raw whole cell fluorescence intensity, PXN (1.6 mM)",[5]; exogenous paraoxon 1.6 mM,895 ± 39
same,"Raw whole cell fluorescence intensity, pNP (200 μM)",[5]; induced with exogenous pNP 200 μM,6263 ± 57
same,"Raw whole cell fluorescence intensity, UI","[5]; uninduced, no pNP source",174 ± 29
same,higher catalytic efficiency over the wild-type,[2],four- to sixteen
B6,turnover number higher than the starting sequence,[6],approximately thirty
same,linear rate exceeding that of PON1-H115W,[6]; at ten-fold lower protein concentration,three
same,protein yield compared to the scaffold,[4],95%
